Test results reported in the supplement of paper PMC10567573.
± gives the standard deviation.

Experiment: protein stability index of a GFP-peptide fusion (GPS, HEK-293T) (PSI 1-6); higher = more stable
[1] = treatment: DMSO, c terminus: a fixed tail appended
[2] = treatment: MLN4924 1 uM, 8 h, c terminus: a fixed tail appended
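Also: 24-mer peptide tiles fused after GFP, lentivirally expressed, FACS-sorted into six equal bins by GFP/DsRed ratio, decoded by Illumina sequencing, PSI is the read-weighted mean bin number.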

Row | Sequence | protein stability index [1] | protein stability index [2] | protein stability index (treatment: DMSO, c terminus: native) | protein stability index (treatment: MLN4924 1 uM, 8 h, c terminus: native)
1 | AAEQAERSQSSIVPEEEQAANKGE [SMARCE1] | 5.51 ± 0.3 | 5.54 ± 0.19 | – | –
2 | AAGMRFPLPEAIDPDVGVNSLQSY [PCDHGA10] | 3.9 ± 0.2 | 4.12 ± 0.31 | – | –
3 | AAKRMRLEIYQSSQDEPIALDKQH [NOL4L] | 3.59 ± 0.27 | 3.88 ± 0.25 | – | –
4 | AALPLAAEETANLPPSPPPSPASE [MAP2] | 5.27 ± 0.13 | 5.09 ± 0.18 | – | –
5 | AAQPMQPLPESLASLHPSVSPGSP [PLAGL1] | 5.2 ± 0.12 | 5.17 ± 0.29 | – | –
6 | AARISNKGKFSTDTKGKPTSRTQV [ZC2HC1A] | 3.91 ± 0.38 | 4.19 ± 0.39 | – | –
7 | ADGLLQLGPLGSTAFLPDSKCLVD [GALNT9] | 3.97 ± 0.16 | 4.09 ± 0.19 | – | –
8 | ADKMTAEEVDQMFQFASIDVAGNL [MYL5] | 4.35 ± 0.41 | 4.47 ± 0.2 | – | –
9 | AEDLRMLDASGEKMNGSHRDQGSS [IKZF1] | 5.18 ± 0.43 | 5.34 ± 0.23 | – | –
10 | AEEESSGGEEEDEDENIEVVYSKA [EIF5] | 5.22 ± 0.17 | 5.25 ± 0.16 | – | –
11 | AEEKERRRKEYDALKAAKREQEKK [LRRC59] | 5.31 ± 0.26 | 5.39 ± 0.12 | – | –
12 | AEHWTKEHCGAVCFVKDNPQKSYF [WAS] | 2.92 ± 0.39 | 2.98 ± 0.23 | – | –
13 | AEKRKRQAEIENKRRQLEDERRQL [PALM] | 4.68 ± 0.5 | 4.94 ± 0.32 | – | –
14 | AELNKEVSTNTAMIQTSKTEITEL [KRT13] | 5.26 ± 0.14 | 5.18 ± 0.079 | – | –
15 | AERVTLADFKGVLQRPSYKFFFKS [DVL3] | 2.29 ± 0.3 | 2.63 ± 0.44 | – | –
16 | AGADLPPPKIRLKPHRLGDSEHEP [PWWP2B] | 4.83 ± 0.23 | 4.91 ± 0.28 | – | –
17 | AGNRNSMVIHIPEEPRPSRPRYKA [KCNK9] | 4.14 ± 0.35 | 4.24 ± 0.13 | – | –
18 | AGPNGTLFVADAYKGLFEVNPWKR [APMAP] | 2.39 ± 0.28 | 2.72 ± 0.31 | – | –
19 | AIIISTIVLDRALHIPMYFFLAIL [OR10K2] | 3.04 ± 0.47 | 3.04 ± 0.33 | – | –
20 | AKALNRPPTYPTKYFGCELGAQTQ [EIF5] | 2.71 ± 0.23 | 3.15 ± 0.13 | – | –
21 | AKEMSVPFYTSRIDEVLLHQDVDL [GFOD1] | 3.74 ± 0.59 | 3.88 ± 0.35 | – | –
22 | AKRNRLAPAHVDEQVFLYENARSG [ZBED1] | 4.3 ± 0.59 | 4.43 ± 0.25 | – | –
23 | ALADVEVKYIVERTMLDFPQHVSS [NLN] | 2.38 ± 0.36 | 2.39 ± 0.16 | – | –

Row | Sequence | protein stability index [1] | protein stability index [2] | protein stability index (treatment: DMSO, c terminus: native) | protein stability index (treatment: MLN4924 1 uM, 8 h, c terminus: native)
24 | ALGGLQSWRVGVVRVRQDSGAEGH [TRIM35] | 2.95 ± 0.46 | 3.31 ± 0.38 | – | –
25 | ALKLIIRLFLVEDLVDSLKLAVFM [RTN3] | 3.69 ± 0.17 | – | – | –
26 | ALLADEERCLSCILAQQPDRLRDE [TRADD] | 4.28 ± 0.2 | 4.3 ± 0.12 | – | –
27 | ALVFGVNTFIALALQTLLTLIVVD [SLC19A2] | 3.33 ± 0.55 | 3.37 ± 0.58 | – | –
28 | ALVGCVISDNPERYSTNLSNHVDD [EDNRA] | 3.94 ± 0.44 | 4.16 ± 0.16 | – | –
29 | AMSTLGVIEAIAQITVKALPKPPG [PTPRD] | 2.21 ± 0.17 | 2.16 ± 0.26 | – | –
30 | ANAHTYHINSISVNSDYETYMSAD [PPP2R2B] | 3.81 ± 0.24 | 3.8 ± 0.22 | – | –
31 | APAKYTVFDAEGYVKPQSCIDIVI [MOSPD3] | 2.83 ± 0.84 | 2.5 ± 1.3 | – | –
32 | APFGRISDARVVKDMATGKSKGYG [TIA1] | 4.47 ± 0.17 | 4.35 ± 0.18 | – | –
33 | APRGKNGFTPLHMAVDKDTTNVGR [FEM1A] | 4.37 ± 0.19 | 4.44 ± 0.18 | – | –
34 | AQFRLLSEVEELNMSLTALREKLL [TEKT4] | 2.23 ± 0.43 | 2.62 ± 0.45 | – | –
35 | AQHSLMDGYCMFNHVAVAARYAQQ [HDAC6] | 2.1 ± 0.25 | 1.92 ± 0.39 | – | –
36 | AQRHRELYLRVELSDVQNPAISIT [HACD3] | 2.16 ± 0.34 | 2.18 ± 0.15 | – | –
37 | ARIAIRGTIKKIIHQETVSKNGNG [PCMTD2] | 3.01 ± 0.22 | 3.21 ± 0.27 | – | –
38 | ARNIGFKVNSKKMLGKYNTPVSYR [ACSBG2] | 2.32 ± 0.37 | 2.55 ± 0.14 | – | –
39 | ARPTEVLAGTQLLYAFFTRTHGDM [TRIB3] | 2.43 ± 0.45 | 2.33 ± 0.38 | – | –
40 | ARRKSELPQDPHTKKALEAHCRAD [PPP2R5C] | 4.68 ± 0.34 | 5.17 ± 0.12 | – | –
41 | ASCCIDPREDGASVNDQCGFGVLR [TSPAN10] | 3.44 ± 0.14 | 3.83 ± 0.31 | – | –
42 | ASGLTGFIGLEVVAQLFNCMVGLL [ATL3] | 2.26 ± 0.16 | 2.15 ± 0.1 | – | –
43 | ASKTVFFFFSSPGNNNGTSIEDGQ [BTBD1] | 2.55 ± 1.3 | 2.29 ± 0.74 | – | –
44 | ASLLQPVTPLGTSRWRKISAALPY [NCF4] | 2.46 ± 0.4 | 2.61 ± 0.3 | – | –
45 | ATFEKILESELLRGTQYSSLDSLD [PSD2] | 2.25 ± 0.23 | 2.41 ± 0.14 | – | –
46 | ATHILVRQQGNPGHRSIYLALKLP [ADAMTS4] | 2.92 ± 0.62 | 2.1 ± 0.35 | – | –

Row | Sequence | protein stability index [1] | protein stability index [2] | protein stability index (treatment: DMSO, c terminus: native) | protein stability index (treatment: MLN4924 1 uM, 8 h, c terminus: native)
47 | ATKQLDFTRKTLAEKKQELDKLRN [SASS6] | 4.19 ± 0.26 | 4.43 ± 0.24 | – | –
48 | ATYISEVHEHDGHLYLGSFRSPFL [APMAP] | 2.37 ± 0.4 | 1.97 ± 0.14 | – | –
49 | AVAHKTPRCPGSVNEKLPQREGTG [SMOC2] | 5.13 ± 0.47 | 5.33 ± 0.12 | – | –
50 | AVGKMGFVVTMLKLIQKKLLDKTC [ZER1] | 2.29 ± 0.64 | 2.35 ± 0.8 | – | –
51 | AVKGSLGSDLGGPLPTDPMLGLAL [TSPAN10] | 3.16 ± 0.17 | 3.06 ± 0.12 | – | –
52 | AVQLRHAWNPEDRSLNVFVKDDDR [SPSB4] | 4.21 ± 0.25 | 4.24 ± 0.26 | – | –
53 | AVSTEDLKECLKKQLEFCFSRENL [LARP4] | 2.65 ± 0.55 | 3.11 ± 0.68 | – | –
54 | AVTKDFKLTDKHETVVSYLPLSHI [ACSBG2] | 2.98 ± 0.075 | 3.08 ± 0.64 | – | –
55 | AVVAAGGGSSGQVTSNGSIGRDPP [CLPTM1] | 4.75 ± 0.13 | 4.88 ± 0.26 | – | –
56 | AYACLVCGKYFQGRGLKSHAYIHS [USP39] | 2.29 ± 0.27 | 2.51 ± 0.52 | – | –
57 | AYIATQGPLAETTEDFWRMLWEHN [PTPRD] | 2.79 ± 0.46 | 2.8 ± 0.37 | – | –
58 | AYTHGCILHPELTVDSMIPAYATT [GDAP1] | 2.65 ± 0.15 | 2.76 ± 0.063 | – | –
59 | CCTHNNSATLSWKQPPLSTVPADG [TRIM9] | 3.09 ± 0.073 | 3.02 ± 0.088 | – | –
60 | CEDQKQIKKPESFSKQIVLRGKSI [NEUROD6] | 4.7 ± 0.21 | 4.61 ± 0.21 | – | –
61 | CHQMGVVHRDLKPENLLLASKCKG [CAMK2B] | 3.7 ± 0.16 | 3.84 ± 0.39 | – | –
62 | CLEGSINEHSAHCPHTPEFSVTGG [RPAIN] | 4.2 ± 0.41 | 4.07 ± 0.21 | – | –
63 | CLGVHCDFHQGLLSFYNARTKQVL [FSD1] | 2.42 ± 0.69 | 2.27 ± 0.18 | – | –
64 | CLTTGDVIAINYNEKIYELRVMET [UFD1] | 2.25 ± 0.35 | 2.04 ± 0.27 | – | –
65 | CMAFELATGDYLFEPHSGEDYSRD [SRPK2] | 3.87 ± 0.47 | 4.12 ± 0.25 | – | –
66 | CNLWDSHHPEVPQRILRIMCRLEE [HDAC6] | 2.55 ± 0.16 | 2.35 ± 0.28 | – | –
67 | CQNKCRIALVENIPEGLNYSENAP [PLD5] | 3.03 ± 0.45 | 3.23 ± 0.64 | – | –
68 | CRANRNCPIDQHHRNQCQYCRLKK [NR2F2] | 4.2 ± 0.044 | 4.39 ± 0.14 | – | –
69 | CSCLSDILRFIYSGAFQWEELEED [RHOBTB3] | 2.35 ± 0.41 | 1.88 ± 0.34 | – | –

Row | Sequence | protein stability index [1] | protein stability index [2] | protein stability index (treatment: DMSO, c terminus: native) | protein stability index (treatment: MLN4924 1 uM, 8 h, c terminus: native)
70 | CSDSDKKCHLWTAMDLGFFVVMGV [CLCN6] | 2.95 ± 0.63 | 2.97 ± 0.5 | – | –
71 | CSHNLCQACARNILVQTPESESPQ [TRIM9] | 3.57 ± 0.33 | 3.85 ± 0.33 | – | –
72 | CTMEPEPVQPGMLIDVCKYLGSLQ [TRIM35] | 2.43 ± 0.13 | 2.41 ± 0.22 | – | –
73 | CTRPVPRNGGKYCEGRRTRFRSCN [ADAMTS4] | 3.79 ± 0.14 | 4.12 ± 0.24 | – | –
74 | CVHPRGGVIQSVSSWKHGSGTQYV [C18orf25] | 2.58 ± 0.42 | 2.32 ± 0.39 | – | –
75 | CYYQPAPYVSDGNFSNYYVAHPPV [TENT5C] | 2.24 ± 0.3 | 2.43 ± 0.45 | – | –
76 | DAEGLAARDVQKIIGDYFSDQDPR [INTS4] | 4.95 ± 0.15 | 4.86 ± 0.32 | – | –
77 | DAFVKIVRHEGTRTLWSGLPATLV [SLC25A39] | 2.6 ± 0.61 | 2.03 ± 0.22 | – | –
78 | DAGEESRVQVLKNEVRRGSPVLLG [TIAF1] | 4.33 ± 0.092 | 4.55 ± 0.24 | – | –
79 | DASILTEMPTQPGKPLIPPMNRRN [NETO1] | 4.45 ± 0.25 | 4.64 ± 0.13 | – | –
80 | DATPPVSPINMEDQERIKVERKRL [JUNB] | 5.53 ± 0.2 | 5.36 ± 0.4 | – | –
81 | DCLAAWEEWLLVGTKQGHLLLYRI [VPS39] | 2.92 ± 1.1 | 2.51 ± 0.32 | – | –
82 | DCSFPGLPRHQDQPHHQPPNRAGA [TRAF3IP2] | 4.91 ± 0.062 | 5.03 ± 0.14 | – | –
83 | DDDAEEEGPKRELGVRRPGGAGKE [TCF25] | 5.58 ± 0.2 | 5.66 ± 0.15 | – | –
84 | DDDKGDSKETRLTLMEEVLLLGLK [GOLPH3] | 3.16 ± 0.36 | 3.65 ± 0.32 | – | –
85 | DDPATLGPHLGLRGVPQSTAASS [DYRK1B] | – | – | 3.28 ± 0.28 | 3.29 ± 0.085
86 | DEMYEVRIAAVEALCMLAQSSPSF [INTS4] | 2.69 ± 0.81 | 2.31 ± 0.11 | – | –
87 | DEPSKPTLALEYTYGRRAKGHNTP [DYNC2LI1] | 4.48 ± 0.23 | 4.65 ± 0.21 | – | –
88 | DETTRSDISERPSVDDIESETGST [C2CD2L] | 5.68 ± 0.1 | 5.6 ± 0.32 | – | –
89 | DFHKPFLGGFRHKVTGVEYHNAGT [IQUB] | 2.88 ± 0.32 | 2.88 ± 0.16 | – | –
